From patent US20250281586A1 (ELANCO US, published 2025)

Assays:
[1] = target: T1, recombinant mouse IL-1RI Fc chimera (R&D 771-MR-100) (mouse, UniProt P13504 20-338); assay: ELISA on coated mouse IL-1RI Fc chimera, detection with biotinylated anti-cIL-1β antibody
T1 construct: Coated on ELISA plates at 1 µg/ml; used in place of canine and feline IL-1RI, which were not commercially available; also called IL-1RI receptor; Fc part of the bought chimera not given; not described
T1 sequence (looked up): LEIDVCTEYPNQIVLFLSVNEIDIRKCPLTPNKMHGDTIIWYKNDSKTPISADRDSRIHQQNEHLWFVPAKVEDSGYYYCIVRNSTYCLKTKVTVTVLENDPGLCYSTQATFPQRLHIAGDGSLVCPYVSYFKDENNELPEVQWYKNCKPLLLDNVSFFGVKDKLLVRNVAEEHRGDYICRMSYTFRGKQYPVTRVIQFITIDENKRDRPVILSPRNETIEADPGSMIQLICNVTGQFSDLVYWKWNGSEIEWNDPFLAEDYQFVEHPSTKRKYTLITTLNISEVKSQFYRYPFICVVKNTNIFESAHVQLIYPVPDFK

[2] = target: T1, recombinant mouse IL-1RI Fc chimera …; assay: ELISA on coated mouse IL-1RI Fc chimera, detection with biotinylated anti-fIL-1β antibody
[3] = target: T1, recombinant mouse IL-1RI Fc chimera …; assay: ELISA on coated mouse IL-1RI Fc chimera

B1: canine IL-1β wild type of SEQ ID NO:29 (ligand)
chain: AAMQSVDCKLQDISHKYLVLSNSYELRALHLNGENVNKQVVFHMSFVHGDESNNKIPVVLGIKQKNLYLSCVMKDGKPTLQLEKVDPKVYPKRKMEKRFVFNKIEIKNTVEFESSQYPNWYISTSQVEGMPVFLGNTRGGQDITDFTMEFSS
notes: also called purified canine IL-1β wild type; wild type canine IL-1β
[1]
  binding result: binds

B2: commercially available recombinant canine IL-1β protein (R&D 3747-CL-025) (ligand, UniProt Q28292 115-266, looked up)
chain: B1 chain
notes: Bought protein; also called recombinant canine IL-1β purchased from R&D system; commercially available canine IL-1β standard
[1]
  binding result: binds

B3: purified feline IL-1β wild type of SEQ ID NO:38 (ligand)
chain: AAIQSQDYTFRDISQKSLVLSGSYELRALHLNGQNMNQQVVFRMSFVHGEENSKKIPVVLCIKKNNLYLSCVMKDGKPTLQLEMLDPKVYPKKKMEKRFVFNKTEIKGNVEFESSQFPNWYISTSQAEEMPVFLGNTKGGQDITDFIMESAS
notes: also called purified wild type feline IL-1β; recombinant feline wild type IL-1β
[2]
  binding result: binds

B4: cIL1b-D145K-CMV-Ntt830-E4 VLPs (other)
chain 1: MGQYIKANSKFIGITERRRRPRRGSRSAPSSADANFRVLSQQLSRLNKTLAAGRPTINHPTFVGSERCKPGYTFTSITLKPPKIDRGSGGGSEEEEGGGSGSYYGKRLLLPDSVTEYDKKLVSRIQIRVNPLPKFDSTVWVTVRKVPASSDLSVAAISAMFADGASPVLVYQYAASGVQANNKLLYDLSAMRADIGDMRKYAVLVYSKDDALETDELVLHVDVEHQRIPTSGVLPV
chain 2: MGSAAMQSVDCKLQDISHKYLVLSNSYELRALHLNGENVNKQVVFHMSFVHGDESNNKIPVVLGIKQKNLYLSCVMKDGKPTLQLEKVDPKVYPKRKMEKRFVFNKIEIKNTVEFESSQYPNWYISTSQVEGMPVFLGNTRGGQDITKFTMEFSSTSHHHHHHGGCG
modifications: engineered free cysteine linked to the maleimide of SMPH bound to the VLP; lysine on the VLP surface derivatized with SMPH
notes: also called cIL1b-D145K-CMV-Ntt830-E4 vaccine; cIL-1b-D145K-CMV vaccine
[3]
  binding result: binds

B5: fIL-1b-D145K-CMV-Ntt830-E4 VLPs (other)
chain 1: B4 chain 1
chain 2: GSAAIQSQDYTFRDISQKSLVLSGSYELRALHLNGQNMNQQVVFRMSFVHGEENSKKIPVVLCIKKNNLYLSCVMKDGKPTLQLEMLDPKVYPKKKMEKRFVFNKTEIKGNVEFESSQFPNWYISTSQAEEMPVFLGNTKGGQDITKFIMESASTSHHHHHHGGCG
modifications: engineered free cysteine linked to the maleimide of SMPH bound to the VLP; lysine on the VLP surface derivatized with SMPH
notes: also called fIL-1b-D145K-CMV-Ntt830-E4 vaccine; fIL1b145K-CMV-Ntt830-E4 vaccine
[3]
  binding result: binds

B6: canine IL-1β-D145K mutein antigen (ligand)
chain: B4 chain 2
notes: expressed in E. coli and purified by IMAC and gel filtration; also called cIL-1β-D145K antigen; cIL1b-D145K-C6Hcg
[1]
  binding result: binds

B7: feline IL-1β-D145K mutein antigen (ligand)
chain: B5 chain 2
notes: also called fIL-1β-D145K antigen
[2]
  binding result: binds
